Numbering of substitutions follows the chain as printed. “And” between values parts separate entries of the source, which are not always exact repeats. Identical values can stand only once.
B1: DOM7r31 (other)
VH: EVQLLESGGGLVQPGGSLRLSCTASGFTFRHYRMGWVRQAPGKGLEWVSWIRPDGTFTYYADSVKGRFTISRDNSKNTLYLQMNSLRAEDTAVYYCAKSYMGDRFDYWGQGTLVTVSS
notes: Anti-serum albumin VH dAb (VH AlbudAb)
B2: DOM7r-31-14 (other)
VH: B1 VH with G102A
notes: as for B1
B3: Rat Serum Albumin (other, UniProt P02770 25-608, looked up)
chain: EAHKSEIAHRFKDLGEQHFKGLVLIAFSQYLQKCPYEEHIKLVQEVTDFAKTCVADENAENCDKSIHTLFGDKLCAIPKLRDNYGELADCCAKQEPERNECFLQHKDDNPNLPPFQRPEAEAMCTSFQENPTSFLGHYLHEVARRHPYFYAPELLYYAEKYNEVLTQCCTESDKAACLTPKLDAVKEKALVAAVRQRMKCSSMQRFGERAFKAWAVARMSQRFPNAEFAEITKLATDVTKINKECCHGDLLECADDRAELAKYMCENQATISSKLQACCDKPVLQKSQCLAEIEHDNIPADLPSIAADFVEDKEVCKNYAEAKDVFLGTFLYEYSRRHPDYSVSLLLRLAKKYEATLEKCCAEGDPPACYGTVLAEFQPLVEEPKNLVKTNCELYEKLGEYGFQNAVLVRYTQKAPQVSTPTLVEAARNLGRVGTKCCTLPEAQRLPCVEDYLSAILNRLCVLHEKTPVSEKVTKCCSGSLVERRPCFSALTVDETYVPKEFKAETFTFHSDICTLPDKEKQIKKQTALAELVKHKPKATEDQLKTVMGDFAQFVDKCCKAADKDNCFATEGPNLVARSKEALA
notes: mature; 'mature' inferred from purified serum protein; also called RSA; rat SA
B4: DOM7r-92-4 (other)
VH: EVQLLESGGGLVQPGGSLRLSCAASGFTFDTSSMLWVRQAPGKGLEWVSVIHQSGTPTYYADSVKGRFTISRDNSKNTLYLQMNSLRAEDTAVYYCAKFPSTHGKFDYWGQGTLVTVSS
notes: Anti-serum albumin VH dAb (VH AlbudAb); also called DOM7h-92-4

What was measured:
Human Serum Albumin [1] = target: T1, Human Serum Albumin (human, UniProt P02768 25-609); test: SPR (BIAcore), albumin amine-coupled to CM5 chip; no KD given
T1 construct: also called HSA; human SA

[2] = target: T2, Cynomolgus monkey Serum Albumin (Cynomolgus monkey, UniProt A2V9Z4 25-608); test: as above
T2 construct: mature; 'mature' inferred from purification out of serum; also called CSA; cyno serum albumin

Rat Serum Albumin [3] = target: B3; test: as above
mouse serum albumin [4] = target: T3, mouse serum albumin (mouse, UniProt P07724 25-608); test: as above
T3 construct: mature; 'mature' inferred from purified serum protein; also called MSA; mouse SA

mouse serum albumin [5] = target: T3, mouse serum albumin; test: SPR (BIAcore); multiple independent measurements
mouse serum albumin [6] = target: T3, mouse serum albumin; test: SPR (BIAcore); multiple independent measurements (second of two values of 12)
mouse serum albumin [7] = target: T3, mouse serum albumin; test: SPR (BIAcore); multiple independent measurements (first of two values of 12)
[8] = target: T4, DOM7h-11-15/Exendin-4 fusion DMS number 7143; test: SPR (BIAcore); KD as listed in PK table
T4 construct: Exendin-4 - (G4S)3 - AlbudAb, made in HEK293E; also called DMS7143

Human Serum Albumin [9] = target: T1, Human Serum Albumin; test: SPR (BIAcore), albumin amine-coupled to CM5 chip
[10] = target: T2, Cynomolgus monkey Serum Albumin; test: SPR (BIAcore), albumin amine-coupled to CM5 chip
Rat Serum Albumin [11] = target: B3; test: SPR (BIAcore), albumin amine-coupled to CM5 chip
mouse serum albumin [12] = target: T3, mouse serum albumin; test: SPR (BIAcore), albumin amine-coupled to CM5 chip

B1: binds (Human Serum Albumin [1]); binds [2]; binds (Rat Serum Albumin [3]). B1: binds (mouse serum albumin [4]).

With B2 the Kd (mouse serum albumin [5]) was 6 nM and 14.2 nM, the Kd (mouse serum albumin [6]) was 12 nM and the Kd (mouse serum albumin [7]) was 12 nM.

With B3 the Kd [8] was 273 nM.

In the case of B4, the Kd (Human Serum Albumin [9]) is reported as 130 nM, the Kd [10] is reported as 98 nM and the Kd (Rat Serum Albumin [11]) is reported as 260 nM. For the same binder, the Kd (mouse serum albumin [12]) was 110 nM.
